18 molecules from patent publication US20150344570A1 (published 2015) can be followed below.

Sequences and labels used below:
T1: FcγRIIb extracellular domain with C-terminal His tag (human, UniProt P31994 43-217)
T1 construct: extracellular domain; also called FcgRIIb; 2b; not shown: His tag attached to the C terminus
T1 sequence (looked up): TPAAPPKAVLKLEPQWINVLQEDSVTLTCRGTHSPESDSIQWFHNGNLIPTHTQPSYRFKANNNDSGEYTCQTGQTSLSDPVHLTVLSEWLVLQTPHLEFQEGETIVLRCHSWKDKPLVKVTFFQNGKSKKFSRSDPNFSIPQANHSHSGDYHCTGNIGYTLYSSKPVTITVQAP

B1: GpH7-A5/GpH7-B3 variant P331_15Y/GpL16-k0 (He Ab) (antibody, human IgG1, kappa)
heavy 1: not shown
heavy 2: not shown
light: DIVMTQSPLSLPVTPGEPASISCQASESLVHSNRNTYLHWYLQKPGQSPQLLIYKVSNRFSGVPDRFSGSGSGTDFTLKISRVEAEDVGVYYCSQNTHVPPTFGQGTKVEIERTVAAPSVFIFPPSDEQLKSGTASVVCLLNNFYPREAKVQWKVDNALQSGNSQESVTEQDSKDSTYSLSSTLTLSKADYEKHKVYACEVTHQGLSSPVTKSFNRGEC
notes: Heterodimerized antibody with the alteration in one H chain only
B2: GpH7-A5/GpH7-B3 variant I332_11K/GpL16-k0 (He Ab) (antibody, human IgG1, kappa)
heavy 1: not shown
heavy 2: not shown
light: B1 light
notes: as for B1
B3: GpH7-A5/GpH7-B3 variant P331_16H/GpL16-k0 (He Ab) (antibody, human IgG1, kappa)
heavy 1: not shown
heavy 2: not shown
light: B1 light
notes: as for B1
B4: GpH7-A5/GpH7-B3 variant P331_08L/GpL16-k0 (He Ab) (antibody, human IgG1, kappa)
heavy 1: not shown
heavy 2: not shown
light: B1 light
notes: as for B1
B5: GpH7-A5/GpH7-B3 variant P331_14T/GpL16-k0 (He Ab) (antibody, human IgG1, kappa)
heavy 1: not shown
heavy 2: not shown
light: B1 light
notes: as for B1
B6: GpH7-A5/GpH7-B3 variant L328_13S/GpL16-k0 (He Ab) (antibody, human IgG1, kappa)
heavy 1: not shown
heavy 2: not shown
light: B1 light
notes: as for B1
B7: GpH7-A5/GpH7-B3 variant L328_18N/GpL16-k0 (He Ab) (antibody, human IgG1, kappa)
heavy 1: not shown
heavy 2: not shown
light: B1 light
notes: as for B1
B8: GpH7-A5/GpH7-B3 variant P331_18N/GpL16-k0 (He Ab) (antibody, human IgG1, kappa)
heavy 1: not shown
heavy 2: not shown
light: B1 light
notes: as for B1
B9: GpH7-A5/GpH7-B3 variant P329_20W/GpL16-k0 (He Ab) (antibody, human IgG1, kappa)
heavy 1: not shown
heavy 2: not shown
light: B1 light
notes: as for B1
B10: GpH7-A5/GpH7-B3 variant L328_14T/GpL16-k0 (He Ab) (antibody, human IgG1, kappa)
heavy 1: not shown
heavy 2: not shown
light: B1 light
notes: as for B1
B11: GpH7-A5/GpH7-B3 variant P331_06M/GpL16-k0 (He Ab) (antibody, human IgG1, kappa)
heavy 1: not shown
heavy 2: not shown
light: B1 light
notes: as for B1
B12: GpH7-A5/GpH7-B3 variant L328_07I/GpL16-k0 (He Ab) (antibody, human IgG1, kappa)
heavy 1: not shown
heavy 2: not shown
light: B1 light
notes: as for B1
B13: GpH7-A5/GpH7-B3 variant P331_11K/GpL16-k0 (He Ab) (antibody, human IgG1, kappa)
heavy 1: not shown
heavy 2: not shown
light: B1 light
notes: as for B1
B14: GpH7-A5/GpH7-B3 variant L328_16H/GpL16-k0 (He Ab) (antibody, human IgG1, kappa)
heavy 1: not shown
heavy 2: not shown
light: B1 light
notes: as for B1
B15: GpH7-A5/GpH7-B3 variant P331_04F/GpL16-k0 (He Ab) (antibody, human IgG1, kappa)
heavy 1: not shown
heavy 2: not shown
light: B1 light
notes: as for B1
B16: GpH7-A5/GpH7-B3 variant L328_15Y/GpL16-k0 (He Ab) (antibody, human IgG1, kappa)
heavy 1: not shown
heavy 2: not shown
light: B1 light
notes: as for B1
B17: GpH7-A5/GpH7-B3 variant L328_19Q/GpL16-k0 (He Ab) (antibody, human IgG1, kappa)
heavy 1: not shown
heavy 2: not shown
light: B1 light
notes: as for B1
B18: GpH7-A5/GpH7-B3 variant L328_10E/GpL16-k0 (He Ab) (antibody, human IgG1, kappa)
heavy 1: not shown
heavy 2: not shown
light: B1 light
notes: as for B1

For the first assay, the target named is T1, FcγRIIb extracellular domain with …. The assay is described as follows: SPR (Biacore), antibody captured on antigen peptide chip, FcγR as analyte; relative binding. The protocol:
(§1) The heterodimerized antibodies He Abs in which one of the H chains was introduced with an alteration were assayed for their binding activities to each activating FcγR and inhibitory FcγR according to the method described in Example 4. […] The activating FcγRs in FIGS. 26, 27, 28, and 29 are FcγRIa, FcγRIIa (R), FcγRIIa (H), and FcγRIIIa, respectively.
(§2) Analysis of interaction between objective antibody and the FcγR was carried out using Biacore T100 (GE Healthcare). HBS-EP+ (GE Healthcare) was used as the running buffer, and the measurement temperature was set to 25° C. Chips produced by immobilizing the antigen peptide by the amine coupling method to a Series S Sencor Chip CM5 (GE Healthcare), or alternatively, chips produced by allowing preliminarily biotinylated antigen peptides to interact with and immobilize onto a Series S Sensor Chip SA (certified) (GE Healthcare) were used. Antibodies of interest were captured onto an antigen peptide-immobilized chip, and allowed to interact to each FcγR diluted with running buffer. To regenerate and repeatedly use the chip, the antibodies captured on the chip were washed off by reacting 10 mM glycine-HCl, pH 1.5.
On the technique in general: Surface plasmon resonance follows binding to a sensor surface in real time, without labels.
B1: the He/Con_2b was 114 % of GpH7-A5/GpH7-B3/GpL16-k0 (=100).

Consider B2, for which the He/Con_2b was 70.9 % of GpH7-A5/GpH7-B3/GpL16-k0 (=100).

In the case of B3, the He/Con_2b is 116 % of GpH7-A5/GpH7-B3/GpL16-k0 (=100).

For B4, the He/Con_2b was 95.7 % of GpH7-A5/GpH7-B3/GpL16-k0 (=100).

As to B5, the He/Con_2b was 99.8 % of GpH7-A5/GpH7-B3/GpL16-k0 (=100).

Take B6: the He/Con_2b was 149 % of GpH7-A5/GpH7-B3/GpL16-k0 (=100).

For the molecule B7, the He/Con_2b was 80.8 % of GpH7-A5/GpH7-B3/GpL16-k0 (=100).

On to B8, for which the He/Con_2b is 99.2 % of GpH7-A5/GpH7-B3/GpL16-k0 (=100).

As for B9, the He/Con_2b was 45.1 % of GpH7-A5/GpH7-B3/GpL16-k0 (=100).

In the case of B10, the He/Con_2b was 141 % of GpH7-A5/GpH7-B3/GpL16-k0 (=100).

B11: the He/Con_2b was 102 % of GpH7-A5/GpH7-B3/GpL16-k0 (=100).

Take B12: the He/Con_2b is 160 % of GpH7-A5/GpH7-B3/GpL16-k0 (=100).

On to B13, for which the He/Con_2b was 84.7 % of GpH7-A5/GpH7-B3/GpL16-k0 (=100).

For B14, the He/Con_2b is 80.6 % of GpH7-A5/GpH7-B3/GpL16-k0 (=100).

For the molecule B15, the He/Con_2b is 110 % of GpH7-A5/GpH7-B3/GpL16-k0 (=100).

Turning to B16, the He/Con_2b was 193 % of GpH7-A5/GpH7-B3/GpL16-k0 (=100).

Turning to B17, the He/Con_2b was 105 % of GpH7-A5/GpH7-B3/GpL16-k0 (=100).

On to B18, for which the He/Con_2b was 172 % of GpH7-A5/GpH7-B3/GpL16-k0 (=100).

For another assay, the target named is T2, FcγRIIIa extracellular domain with C-terminal His tag (human, UniProt P08637 17-208).
T2 construct: extracellular domain; also called FcgRIIIa; 3a; not shown: His tag attached to the C terminus
T2 sequence (P08637 17-208): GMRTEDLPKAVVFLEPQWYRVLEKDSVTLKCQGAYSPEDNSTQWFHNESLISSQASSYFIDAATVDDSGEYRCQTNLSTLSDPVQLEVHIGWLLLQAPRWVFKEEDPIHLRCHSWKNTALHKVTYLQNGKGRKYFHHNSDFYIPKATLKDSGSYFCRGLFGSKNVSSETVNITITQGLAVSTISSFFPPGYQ
The assay is described as above. The procedure: as §1, §2
B1: the He/Con_3a was 81.9 % of GpH7-A5/GpH7-B3/GpL16-k0 (=100).

In the case of B2, the He/Con_3a was 45.1 % of GpH7-A5/GpH7-B3/GpL16-k0 (=100).

Turning to B3, the He/Con_3a was 80.2 % of GpH7-A5/GpH7-B3/GpL16-k0 (=100).

B4: the He/Con_3a is 72.1 % of GpH7-A5/GpH7-B3/GpL16-k0 (=100).

For B5, the He/Con_3a was 74.1 % of GpH7-A5/GpH7-B3/GpL16-k0 (=100).

In the case of B6, the He/Con_3a is 71.7 % of GpH7-A5/GpH7-B3/GpL16-k0 (=100).

Turning to B7, the He/Con_3a is 49.7 % of GpH7-A5/GpH7-B3/GpL16-k0 (=100).

On to B8, for which the He/Con_3a is 73.4 % of GpH7-A5/GpH7-B3/GpL16-k0 (=100).

Take B9: the He/Con_3a was 31.7 % of GpH7-A5/GpH7-B3/GpL16-k0 (=100).

Take B10: the He/Con_3a was 75.3 % of GpH7-A5/GpH7-B3/GpL16-k0 (=100).

For the molecule B11, the He/Con_3a is 74.8 % of GpH7-A5/GpH7-B3/GpL16-k0 (=100).

As to B12, the He/Con_3a was 84 % of GpH7-A5/GpH7-B3/GpL16-k0 (=100).

As to B13, the He/Con_3a was 67.5 % of GpH7-A5/GpH7-B3/GpL16-k0 (=100).

In the case of B14, the He/Con_3a was 54.3 % of GpH7-A5/GpH7-B3/GpL16-k0 (=100).

For the molecule B15, the He/Con_3a is 77.3 % of GpH7-A5/GpH7-B3/GpL16-k0 (=100).

As for B16, the He/Con_3a was 68.3 % of GpH7-A5/GpH7-B3/GpL16-k0 (=100).

Consider B17, for which the He/Con_3a was 81.1 % of GpH7-A5/GpH7-B3/GpL16-k0 (=100).

Regarding B18, the He/Con_3a is 53.4 % of GpH7-A5/GpH7-B3/GpL16-k0 (=100).
